From patent US20190119358A1
*1 amine or outer side, *2 acyl side, *3 side chain or, on linkers, in order; H or OH if unused. Bridges are numbered along the chain shown (N, C = ends). Where no end group is shown, it is not given here. [ ]: non-standard residue; d: D form. The star is where a group is joined. Trp(7-aza) = N[C@@H](Cc1c[nH]c2ncccc12)C(=O)O; NMePhe(4-F) = CN[C@@H](Cc1ccc(F)cc1)C(=O)O; ivDde = CC(C)CC(=C1C(=O)CC(C)(C)CC1=O)*; mXylylene = c1cc(C[*:1])cc(C[*:2])c1; NMeY = CN[C@@H](Cc1ccc(O)cc1)C(=O)O; NMeK = CN[C@@H](CCCCN)C(=O)O; Phg = N[C@H](C(=O)O)c1ccccc1; Tle = CC(C)(C)[C@H](N)C(=O)O; NMeS = CN[C@@H](CO)C(=O)O; NMeA = CN[C@@H](C)C(=O)O; Pra = C#CC[C@H](N)C(=O)O; Nva = CCC[C@H](N)C(=O)O; Dap = NC[C@H](N)C(=O)O; AEEA = NCCOCCOCC(=O)O; Acryloyl = C=CC(=O)*; Ahx = NCCCCCC(=O)O; Ava = NCCCCC(=O)O; Sar = CNCC(=O)O

B1: R4130 (peptide)
peptide: cyclo([AEEA]Y[Tle]KH[NMeA][Phg][Trp(7-aza)]Y[NMePhe(4-F)][Sar][Pra])
SMILES: C#CC[C@@H]1NC(=O)CN(C)C(=O)[C@H](Cc2ccc(F)cc2)N(C)C(=O)[C@H](Cc2ccc(O)cc2)NC(=O)[C@H](Cc2c[nH]c3ncccc23)NC(=O)[C@H](c2ccccc2)NC(=O)[C@H](C)N(C)C(=O)[C@H](Cc2c[nH]cn2)NC(=O)[C@H](CCCCN)NC(=O)[C@H](C(C)(C)C)NC(=O)[C@H](Cc2ccc(O)cc2)NC(=O)COCCOCCNC1=O
B2: R4126 (peptide)
peptide: Ac-[Nva]CY[Tle]KA[NMeA][Phg][Trp(7-aza)]Y[NMePhe(4-F)][Sar]C-NH2
modifications: linker 2-13 via mXylylene
SMILES: CCC[C@H](NC(C)=O)C(=O)N[C@H]1CSCc2cccc(c2)CSC[C@@H](C(N)=O)NC(=O)CN(C)C(=O)[C@H](Cc2ccc(F)cc2)N(C)C(=O)[C@H](Cc2ccc(O)cc2)NC(=O)[C@H](Cc2c[nH]c3ncccc23)NC(=O)[C@H](c2ccccc2)NC(=O)[C@H](C)N(C)C(=O)[C@H](C)NC(=O)[C@H](CCCCN)NC(=O)[C@H](C(C)(C)C)NC(=O)[C@H](Cc2ccc(O)cc2)NC1=O
B3: R4128 (peptide)
peptide: cyclo([Ava]Y[Tle]KH[NMeA][Phg][Trp(7-aza)]Y[NMePhe(4-F)][Sar][Pra])
SMILES: C#CC[C@@H]1NC(=O)CN(C)C(=O)[C@H](Cc2ccc(F)cc2)N(C)C(=O)[C@H](Cc2ccc(O)cc2)NC(=O)[C@H](Cc2c[nH]c3ncccc23)NC(=O)[C@H](c2ccccc2)NC(=O)[C@H](C)N(C)C(=O)[C@H](Cc2c[nH]cn2)NC(=O)[C@H](CCCCN)NC(=O)[C@H](C(C)(C)C)NC(=O)[C@H](Cc2ccc(O)cc2)NC(=O)CCCCNC1=O
B4: R4127 (peptide)
peptide: Ac-[Nva]CY[Tle]KH[NMeA][Phg][Trp(7-aza)]Y[NMePhe(4-F)][Sar]CGGGCVIM-NH2
modifications: linker 2-13 via mXylylene
SMILES: CCC[C@H](NC(C)=O)C(=O)N[C@H]1CSCc2cccc(c2)CSC[C@@H](C(=O)NCC(=O)NCC(=O)NCC(=O)N[C@@H](CS)C(=O)N[C@H](C(=O)N[C@H](C(=O)N[C@@H](CCSC)C(N)=O)[C@@H](C)CC)C(C)C)NC(=O)CN(C)C(=O)[C@H](Cc2ccc(F)cc2)N(C)C(=O)[C@H](Cc2ccc(O)cc2)NC(=O)[C@H](Cc2c[nH]c3ncccc23)NC(=O)[C@H](c2ccccc2)NC(=O)[C@H](C)N(C)C(=O)[C@H](Cc2c[nH]cn2)NC(=O)[C@H](CCCCN)NC(=O)[C@H](C(C)(C)C)NC(=O)[C@H](Cc2ccc(O)cc2)NC1=O
B5: R4136 (peptide)
peptide: Ac-[Nva]CY[Tle]A[Dap](Acryloyl)[NMeA][Phg][Trp(7-aza)]Y[NMePhe(4-F)][Sar]C-NH2
modifications: linker 2-13 via mXylylene
SMILES: C=CC(=O)NC[C@@H]1NC(=O)[C@H](C)NC(=O)[C@H](C(C)(C)C)NC(=O)[C@H](Cc2ccc(O)cc2)NC(=O)[C@@H](NC(=O)[C@H](CCC)NC(C)=O)CSCc2cccc(c2)CSC[C@@H](C(N)=O)NC(=O)CN(C)C(=O)[C@H](Cc2ccc(F)cc2)N(C)C(=O)[C@H](Cc2ccc(O)cc2)NC(=O)[C@H](Cc2c[nH]c3ncccc23)NC(=O)[C@H](c2ccccc2)NC(=O)[C@H](C)N(C)C1=O
B6: R4132 (peptide)
peptide: Ac-[Nva]CY[Tle]KH[NMeS][Phg][Trp(7-aza)]Y[NMePhe(4-F)][Sar]C-NH2
modifications: linker 2-13 via mXylylene
SMILES: CCC[C@H](NC(C)=O)C(=O)N[C@H]1CSCc2cccc(c2)CSC[C@@H](C(N)=O)NC(=O)CN(C)C(=O)[C@H](Cc2ccc(F)cc2)N(C)C(=O)[C@H](Cc2ccc(O)cc2)NC(=O)[C@H](Cc2c[nH]c3ncccc23)NC(=O)[C@H](c2ccccc2)NC(=O)[C@H](CO)N(C)C(=O)[C@H](Cc2c[nH]cn2)NC(=O)[C@H](CCCCN)NC(=O)[C@H](C(C)(C)C)NC(=O)[C@H](Cc2ccc(O)cc2)NC1=O
B7: R4133 (peptide)
peptide: Ac-[Nva]CY[Tle]AH[NMeK](Acryloyl)[Phg][Trp(7-aza)]Y[NMePhe(4-F)][Sar]C-NH2
modifications: linker 2-13 via mXylylene
SMILES: C=CC(=O)NCCCC[C@H]1C(=O)N[C@@H](c2ccccc2)C(=O)N[C@@H](Cc2c[nH]c3ncccc23)C(=O)N[C@@H](Cc2ccc(O)cc2)C(=O)N(C)[C@@H](Cc2ccc(F)cc2)C(=O)N(C)CC(=O)N[C@H](C(N)=O)CSCc2cccc(c2)CSC[C@H](NC(=O)[C@H](CCC)NC(C)=O)C(=O)N[C@@H](Cc2ccc(O)cc2)C(=O)N[C@@H](C(C)(C)C)C(=O)N[C@@H](C)C(=O)N[C@@H](Cc2c[nH]cn2)C(=O)N1C
B8: R4125 (peptide)
peptide: Ac-[Nva]CY[Tle]AH[NMeK][Phg][Trp(7-aza)]Y[NMePhe(4-F)][Sar]C-NH2
modifications: linker 2-13 via mXylylene
SMILES: CCC[C@H](NC(C)=O)C(=O)N[C@H]1CSCc2cccc(c2)CSC[C@@H](C(N)=O)NC(=O)CN(C)C(=O)[C@H](Cc2ccc(F)cc2)N(C)C(=O)[C@H](Cc2ccc(O)cc2)NC(=O)[C@H](Cc2c[nH]c3ncccc23)NC(=O)[C@H](c2ccccc2)NC(=O)[C@H](CCCCN)N(C)C(=O)[C@H](Cc2c[nH]cn2)NC(=O)[C@H](C)NC(=O)[C@H](C(C)(C)C)NC(=O)[C@H](Cc2ccc(O)cc2)NC1=O
B9: R4137 (peptide)
peptide: cyclo([Ahx]Y[Tle]KH[NMeA][Phg][Trp(7-aza)]Y[NMePhe(4-F)][Sar][Pra])
SMILES: C#CC[C@@H]1NC(=O)CN(C)C(=O)[C@H](Cc2ccc(F)cc2)N(C)C(=O)[C@H](Cc2ccc(O)cc2)NC(=O)[C@H](Cc2c[nH]c3ncccc23)NC(=O)[C@H](c2ccccc2)NC(=O)[C@H](C)N(C)C(=O)[C@H](Cc2c[nH]cn2)NC(=O)[C@H](CCCCN)NC(=O)[C@H](C(C)(C)C)NC(=O)[C@H](Cc2ccc(O)cc2)NC(=O)CCCCCNC1=O

Target: GMPPNP-loaded H-Ras or GTP-loaded K-Ras
Assay: FP competition, displacement of probe R4007 from Ras

Row | IC50 | Binder
1 | 0.227 µM | Ac-[Nva]C[NMeY][Tle]KH[NMeA][Phg][Trp(7-aza)]Y[NMePhe(4-F)][Sar]C[dS][dA]K[Cys(StBu)]VIM (linker 2-13 via mXylylene) [R4129]
2 | 0.268 µM | B1
3 | 0.127 µM | B2
4 | 0.215 µM | B3
5 | 0.278 µM | Ac-[Nva]CY[Tle]KH[NMeA][Phg][Trp(7-aza)]Y[NMePhe(4-F)][Sar]CGGGCVIM (linker 2-13 via mXylylene) [R4131]
6 | 0.346 µM | Ac-[Nva]CY[Tle]K(4‑(dimethylamino)benzoyl)H[NMeA][Phg][Trp(7-aza)]Y[NMePhe(4-F)][Sar]C-NH2 (linker 2-13 via mXylylene) [R4134]
7 | 0.148 µM | B4
8 | 0.393 µM | B5
9 | 0.364 µM | Ac-[Nva]CY[Tle]K(ivDde)H[NMeA][Phg][Trp(7-aza)]Y[NMePhe(4-F)][Sar]C (linker 2-13 via m‑xylylene) [R4135]
10 | 0.281 µM | B6
11 | 0.342 µM | B7
12 | 0.11 µM | B8
13 | 0.411 µM | B9
